B1: AMOTL2 R14: AMOTL2, R14 to alanine (protein, UniProt Q9Y2J4 1-779, looked up, variant R14A)
Angiomotin-like protein 2: MRTLEDSSGTVLHALIQEQLRYGNLTETRTLLAIQQQALRGGAGTGGTGSPQASLEILAPEDSQVLQQATRQEPQGQEHQGGENHLAENTLYRLCPQPSKGEELPTYEEAKAHSQYYAAQQAGTRPHAGDRDPRGAPGGSRRQDEALRELRHGHVRSLSERLLQLSLERNGARAPSHMSSSHSFPQLARNQQGPPLRGPPAEGPESRGPPPQYPHVVLAHETTTAVTDPRYRARGSPHFQHAEVRILQAQVPPVFLQQQQQYQYLQQSQEHPPPPHPAALGHGPLSSLSPPAVEGPVSAQASSATSGSAHLAQMEAVLRENARLQRDNERLQRELESSAEKAGRIEKLESEIQRLSEAHESLTRASSKREALEKTMRNKMDSEMRRLQDFNRDLRERLESANRRLASKTQEAQAGSQDMVAKLLAQSYEQQQEQEKLEREMALLRGAIEDQRRRAELLEQALGNAQGRAARAEEELRKKQAYVEKVERLQQALGQLQAACEKREQLELRLRTRLEQELKALRAQQRQAGAPGGSSGSGGSPELSALRLSEQLREKEEQILALEADMTKWEQKYLEERAMRQFAMDAAATAAAQRDTTLIRHSPQPSPSSSFNEGLLTGGHRHQEMESRLKVLHAQILEKDAVIKVLQQRSRRDPGKAIQGSLRPAKSVPSVFAAAAAGTQGWQGLSSSERQTADAPARLTTDRAPTEEPVVTAPPAAHAKHGSRDGSTQTEGPPDSTSTCLPPEPDSLLGCSSSQRAASLDSVATSRVQDLSDMVEILI
B2: AMOTL2 L15: AMOTL2, L15 to alanine (protein, UniProt Q9Y2J4 1-779, looked up, variant L15A)
Angiomotin-like protein 2: MRTLEDSSGTVLHRAIQEQLRYGNLTETRTLLAIQQQALRGGAGTGGTGSPQASLEILAPEDSQVLQQATRQEPQGQEHQGGENHLAENTLYRLCPQPSKGEELPTYEEAKAHSQYYAAQQAGTRPHAGDRDPRGAPGGSRRQDEALRELRHGHVRSLSERLLQLSLERNGARAPSHMSSSHSFPQLARNQQGPPLRGPPAEGPESRGPPPQYPHVVLAHETTTAVTDPRYRARGSPHFQHAEVRILQAQVPPVFLQQQQQYQYLQQSQEHPPPPHPAALGHGPLSSLSPPAVEGPVSAQASSATSGSAHLAQMEAVLRENARLQRDNERLQRELESSAEKAGRIEKLESEIQRLSEAHESLTRASSKREALEKTMRNKMDSEMRRLQDFNRDLRERLESANRRLASKTQEAQAGSQDMVAKLLAQSYEQQQEQEKLEREMALLRGAIEDQRRRAELLEQALGNAQGRAARAEEELRKKQAYVEKVERLQQALGQLQAACEKREQLELRLRTRLEQELKALRAQQRQAGAPGGSSGSGGSPELSALRLSEQLREKEEQILALEADMTKWEQKYLEERAMRQFAMDAAATAAAQRDTTLIRHSPQPSPSSSFNEGLLTGGHRHQEMESRLKVLHAQILEKDAVIKVLQQRSRRDPGKAIQGSLRPAKSVPSVFAAAAAGTQGWQGLSSSERQTADAPARLTTDRAPTEEPVVTAPPAAHAKHGSRDGSTQTEGPPDSTSTCLPPEPDSLLGCSSSQRAASLDSVATSRVQDLSDMVEILI
B3: AMOTL2 I16: AMOTL2, I16 to alanine (protein, UniProt Q9Y2J4 1-779, looked up, variant I16A)
Angiomotin-like protein 2: MRTLEDSSGTVLHRLAQEQLRYGNLTETRTLLAIQQQALRGGAGTGGTGSPQASLEILAPEDSQVLQQATRQEPQGQEHQGGENHLAENTLYRLCPQPSKGEELPTYEEAKAHSQYYAAQQAGTRPHAGDRDPRGAPGGSRRQDEALRELRHGHVRSLSERLLQLSLERNGARAPSHMSSSHSFPQLARNQQGPPLRGPPAEGPESRGPPPQYPHVVLAHETTTAVTDPRYRARGSPHFQHAEVRILQAQVPPVFLQQQQQYQYLQQSQEHPPPPHPAALGHGPLSSLSPPAVEGPVSAQASSATSGSAHLAQMEAVLRENARLQRDNERLQRELESSAEKAGRIEKLESEIQRLSEAHESLTRASSKREALEKTMRNKMDSEMRRLQDFNRDLRERLESANRRLASKTQEAQAGSQDMVAKLLAQSYEQQQEQEKLEREMALLRGAIEDQRRRAELLEQALGNAQGRAARAEEELRKKQAYVEKVERLQQALGQLQAACEKREQLELRLRTRLEQELKALRAQQRQAGAPGGSSGSGGSPELSALRLSEQLREKEEQILALEADMTKWEQKYLEERAMRQFAMDAAATAAAQRDTTLIRHSPQPSPSSSFNEGLLTGGHRHQEMESRLKVLHAQILEKDAVIKVLQQRSRRDPGKAIQGSLRPAKSVPSVFAAAAAGTQGWQGLSSSERQTADAPARLTTDRAPTEEPVVTAPPAAHAKHGSRDGSTQTEGPPDSTSTCLPPEPDSLLGCSSSQRAASLDSVATSRVQDLSDMVEILI
B4: CDCA4 R58: CDCA4, R58 to alanine (protein, UniProt Q9BXL8 1-241, looked up, variant R58A)
Cell division …: MFARGLKRKCVGHEEDVEGALAGLKTVSSYSLQRQSLLDMSLVKLQLCHMLVEPNLCASVLIANTVRQIQEEMTQDGTWRTVAPQAAERAPLDRLVSTEILCRAAWGQEGAHPAPGLGDGHTQGPVSDLCPVTSAQAPRHLQSSAWEMDGPRENRGSFHKSLDQIFETLETKNPSCMEELFSDVDSPYYDLDTVLTGMMGGARPGPCEGLEGLAPATPGPSSSCKSDLGELDHVVEILVET
B5: CDCA4 N64: CDCA4, N64 to alanine (protein, UniProt Q9BXL8 1-241, looked up, variant N64A)
Cell division …: MFARGLKRKCVGHEEDVEGALAGLKTVSSYSLQRQSLLDMSLVKLQLCHMLVEPNLCRSVLIAATVRQIQEEMTQDGTWRTVAPQAAERAPLDRLVSTEILCRAAWGQEGAHPAPGLGDGHTQGPVSDLCPVTSAQAPRHLQSSAWEMDGPRENRGSFHKSLDQIFETLETKNPSCMEELFSDVDSPYYDLDTVLTGMMGGARPGPCEGLEGLAPATPGPSSSCKSDLGELDHVVEILVET
B6: CDCA4 V66: CDCA4, V66 to alanine (protein, UniProt Q9BXL8 1-241, looked up, variant V66A)
Cell division …: MFARGLKRKCVGHEEDVEGALAGLKTVSSYSLQRQSLLDMSLVKLQLCHMLVEPNLCRSVLIANTARQIQEEMTQDGTWRTVAPQAAERAPLDRLVSTEILCRAAWGQEGAHPAPGLGDGHTQGPVSDLCPVTSAQAPRHLQSSAWEMDGPRENRGSFHKSLDQIFETLETKNPSCMEELFSDVDSPYYDLDTVLTGMMGGARPGPCEGLEGLAPATPGPSSSCKSDLGELDHVVEILVET
B7: CDCA4 V43: CDCA4, V43 to alanine (protein, UniProt Q9BXL8 1-241, looked up, variant V43A)
Cell division …: MFARGLKRKCVGHEEDVEGALAGLKTVSSYSLQRQSLLDMSLAKLQLCHMLVEPNLCRSVLIANTVRQIQEEMTQDGTWRTVAPQAAERAPLDRLVSTEILCRAAWGQEGAHPAPGLGDGHTQGPVSDLCPVTSAQAPRHLQSSAWEMDGPRENRGSFHKSLDQIFETLETKNPSCMEELFSDVDSPYYDLDTVLTGMMGGARPGPCEGLEGLAPATPGPSSSCKSDLGELDHVVEILVET
B8: CDCA4 T65: CDCA4, T65 to alanine (protein, UniProt Q9BXL8 1-241, looked up, variant T65A)
Cell division …: MFARGLKRKCVGHEEDVEGALAGLKTVSSYSLQRQSLLDMSLVKLQLCHMLVEPNLCRSVLIANAVRQIQEEMTQDGTWRTVAPQAAERAPLDRLVSTEILCRAAWGQEGAHPAPGLGDGHTQGPVSDLCPVTSAQAPRHLQSSAWEMDGPRENRGSFHKSLDQIFETLETKNPSCMEELFSDVDSPYYDLDTVLTGMMGGARPGPCEGLEGLAPATPGPSSSCKSDLGELDHVVEILVET
B9: CDCA4 S59: CDCA4, S59 to alanine (protein, UniProt Q9BXL8 1-241, looked up, variant S59A)
Cell division …: MFARGLKRKCVGHEEDVEGALAGLKTVSSYSLQRQSLLDMSLVKLQLCHMLVEPNLCRAVLIANTVRQIQEEMTQDGTWRTVAPQAAERAPLDRLVSTEILCRAAWGQEGAHPAPGLGDGHTQGPVSDLCPVTSAQAPRHLQSSAWEMDGPRENRGSFHKSLDQIFETLETKNPSCMEELFSDVDSPYYDLDTVLTGMMGGARPGPCEGLEGLAPATPGPSSSCKSDLGELDHVVEILVET
B10: CDCA4 L42: CDCA4, L42 to alanine (protein, UniProt Q9BXL8 1-241, looked up, variant L42A)
Cell division …: MFARGLKRKCVGHEEDVEGALAGLKTVSSYSLQRQSLLDMSAVKLQLCHMLVEPNLCRSVLIANTVRQIQEEMTQDGTWRTVAPQAAERAPLDRLVSTEILCRAAWGQEGAHPAPGLGDGHTQGPVSDLCPVTSAQAPRHLQSSAWEMDGPRENRGSFHKSLDQIFETLETKNPSCMEELFSDVDSPYYDLDTVLTGMMGGARPGPCEGLEGLAPATPGPSSSCKSDLGELDHVVEILVET
B11: CDCA4 I62: CDCA4, I62 to alanine (protein, UniProt Q9BXL8 1-241, looked up, variant I62A)
Cell division …: MFARGLKRKCVGHEEDVEGALAGLKTVSSYSLQRQSLLDMSLVKLQLCHMLVEPNLCRSVLAANTVRQIQEEMTQDGTWRTVAPQAAERAPLDRLVSTEILCRAAWGQEGAHPAPGLGDGHTQGPVSDLCPVTSAQAPRHLQSSAWEMDGPRENRGSFHKSLDQIFETLETKNPSCMEELFSDVDSPYYDLDTVLTGMMGGARPGPCEGLEGLAPATPGPSSSCKSDLGELDHVVEILVET
B12: CDCA4 L61: CDCA4, L61 to alanine (protein, UniProt Q9BXL8 1-241, looked up, variant L61A)
Cell division …: MFARGLKRKCVGHEEDVEGALAGLKTVSSYSLQRQSLLDMSLVKLQLCHMLVEPNLCRSVAIANTVRQIQEEMTQDGTWRTVAPQAAERAPLDRLVSTEILCRAAWGQEGAHPAPGLGDGHTQGPVSDLCPVTSAQAPRHLQSSAWEMDGPRENRGSFHKSLDQIFETLETKNPSCMEELFSDVDSPYYDLDTVLTGMMGGARPGPCEGLEGLAPATPGPSSSCKSDLGELDHVVEILVET
B13: CDCA4 V60: CDCA4, V60 to alanine (protein, UniProt Q9BXL8 1-241, looked up, variant V60A)
Cell division …: MFARGLKRKCVGHEEDVEGALAGLKTVSSYSLQRQSLLDMSLVKLQLCHMLVEPNLCRSALIANTVRQIQEEMTQDGTWRTVAPQAAERAPLDRLVSTEILCRAAWGQEGAHPAPGLGDGHTQGPVSDLCPVTSAQAPRHLQSSAWEMDGPRENRGSFHKSLDQIFETLETKNPSCMEELFSDVDSPYYDLDTVLTGMMGGARPGPCEGLEGLAPATPGPSSSCKSDLGELDHVVEILVET

These molecules were tested on PP2A-B55α (assay: Single alanine mutational scan, YFP-tagged interactors immunoprecipitated from HeLa cells, Western blot). Conditions: single alanine mutant of YFP-tagged AMOTL2.
Format: binding, human
Experimental: Standard cloning techniques were used throughout. Point mutations were introduced by whole plasmid polymerase chain reaction (PCR). All constructs were fully sequenced. Synthetic DNA was purchased from GeneArt, Life Technologies and cloned into pcDNA5/FRT/TO (Invitrogen) expression vector containing YFP, resulting in the indicated YFP fusion proteins. These constructs were transiently transfected into HeLa cells 24 hours before harvesting cells. Cells were lysed in lysis buffer [50 mM tris-HCl (pH 7.5), 50 mM NaCl, 1 mM EDTA, 1 mM […], and 0.1% NP-40]. Complexes were immunoprecipitated at 4°C in lysis buffer with green fluorescent protein (GFP)–Trap (ChromoTek) and washed in lysis buffer. Precipitated protein complexes were washed three times in lysis buffer, eluted in 2× SDS sample buffer, and subjected to Western blotting or MS as indicated.
For B1, the Experimental % binding was 15%.
For B2, the Experimental % binding was 32%.
With B3 the Experimental % binding was 32%.

Same assay, conditions: single alanine mutant of YFP-tagged CDCA4
In the case of B4, the Experimental % binding is reported as 37%.
For B5, the Experimental % binding was 57%.
Molecule B6 has an Experimental % binding of 38%.
Molecule B7 has an Experimental % binding of 81%.
Molecule B8 has an Experimental % binding of 28%.
B9 gave an Experimental % binding of 64%.
B10 gave an Experimental % binding of 129%.
Work on B11 yielded an Experimental % binding of 7%.
Molecule B12 has an Experimental % binding of 28%.
For B13, the Experimental % binding was 47%.
